Laboratory results taken from article PMC11115209.

Key:
His6-TBC1D15 [1] = molecular target: His6-TBC1D15 (UniProt Q8TC07); assay: HA beads pulldown, immunoblot band quantification; conditions: read off a plot
His6-TBC1D15 [2] = molecular target: His6-TBC1D15 (UniProt Q8TC07); assay: immunoprecipitation with Flag beads, immunoblot band quantification; conditions: HA-SUMO2 co-expressed, read off a plot, scale: relative band intensity
[3] = + SulF (GST-SulF), parent: est. 0.16

Chain of UniProt Q8TC07 (Q8TC07 whole entry, looked up): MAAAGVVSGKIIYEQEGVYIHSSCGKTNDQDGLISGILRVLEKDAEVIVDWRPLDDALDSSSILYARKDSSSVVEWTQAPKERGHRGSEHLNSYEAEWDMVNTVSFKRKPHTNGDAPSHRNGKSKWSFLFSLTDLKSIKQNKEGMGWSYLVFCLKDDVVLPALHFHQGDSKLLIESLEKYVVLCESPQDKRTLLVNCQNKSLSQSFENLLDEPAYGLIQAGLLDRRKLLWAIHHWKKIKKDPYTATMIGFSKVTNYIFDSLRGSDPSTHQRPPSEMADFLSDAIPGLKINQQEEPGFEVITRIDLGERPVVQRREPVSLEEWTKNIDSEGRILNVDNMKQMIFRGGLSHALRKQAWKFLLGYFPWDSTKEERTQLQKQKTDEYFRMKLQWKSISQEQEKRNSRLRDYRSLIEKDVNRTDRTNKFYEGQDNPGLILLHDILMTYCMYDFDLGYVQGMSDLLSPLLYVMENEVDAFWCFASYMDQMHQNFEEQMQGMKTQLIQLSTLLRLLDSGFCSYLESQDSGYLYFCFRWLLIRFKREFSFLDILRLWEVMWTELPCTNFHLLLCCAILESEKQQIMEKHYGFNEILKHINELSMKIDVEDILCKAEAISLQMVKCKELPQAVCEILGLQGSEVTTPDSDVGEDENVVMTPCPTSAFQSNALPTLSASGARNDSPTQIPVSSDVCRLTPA

| Substance | response (relative ratio) (His6-TBC1D15 [1]; Buffer added after 1 h incubation) | response (relative ratio) (His6-TBC1D15 [1]; GST added after 1 h incubation) | response (relative ratio) (His6-TBC1D15 [1]; GST-SulF added after 1 h incubation (competition)) | response (relative ratio) (His6-TBC1D15 [1]; GST-SulFIV/AA added after 1 h incubation (competition)) | response (His6-TBC1D15 [2]; + GST, parent: est. 0.25) | response (His6-TBC1D15 [2]; [3]) |
| --- | --- | --- | --- | --- | --- | --- |
| Flag-Rab7 WT (Rab7 part of m4) Q67L | 1 | 1.1 | 0.34 | 1.1 | 0.88 | 0.48 |
| Flag-Rab7 WT (Rab7 part of m4) T22N | – | – | – | – | 0.57 | 0.31 |
| Flag-Rab7 WT (Rab7 part of m4) Q67L; K175R | – | – | – | – | 1 | 1.1 |
